Tested on: MS2 coat protein
Assay: apparent KD of MS2 coat protein; designed switch direction (-1 OFF switch, 1 ON switch): -1; higher = weaker reporter binding
How it was run: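 Designed RNA switches with common flanks were made on Illumina chips by stalled E. coli RNA polymerase. Titration with SNAP-549-labelled MS2 coat protein doubled from 0.7 or 1.5 nM up to 3 µM. Apparent KD is each design's median over clusters after curve-fitting normalised fluorescence.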

[1] = Eterna round: R95, input ligand: microRNA oligo, concentration not stated
[2] = Eterna round: R95, input ligand: FMN 200 uM
[3] = Eterna round: R95, input ligand: none
[4] = input ligand: microRNA oligo, concentration not stated

Sequence | apparent KD of MS2 coat protein [1] [nM] | apparent KD of MS2 coat protein (input ligand: FMN 200 uM) [nM] | apparent KD of MS2 coat protein (input ligand: none) [nM] | further results
CCUAUGUGAGGAUAUCACUGGUCUUCUCACUGGAUGACCAGUGAGAAGGCACAUGAGGAUCACCCAUGUCGGUG [Ex4 - 3 - 50] (puzzle: Exclusion 4) | 312 |  |  | 
GCUGGAAAAGGAUAUACAUAACGUGCGUCGGCACGAGACCUACAUGAGGAUCACCCAUGUAGAAGGUUUCCAGC [EX2 #74] (Eterna round: R97, puzzle: Exclusion 2) |  | 20.9 | 13.6 | 
UCUUUACAUGAGGAUCACCCAUGUCAGGAUAUCAACUUUUGGGACUUCGGAUAUAAGAUGAGAAGGGACACCGG [Eternabot (L2) Solution 53] (Eterna round: R97, puzzle: Exclusion 1) |  | 19.2 | 19.4 | 
UUCUUGUGAGGAUAUCAGUAGUAAAUAAAUAAAAUUACUACUGAGAAGGCACAUGAGGAUCACCCAUGUUCCUU [salish99_ex3_r3_092] (puzzle: Exclusion 4) | 15 |  |  | 
ACAAGCUUUUUGUUCGUCUUAUAAUAAUAAAUAAAGAUAACAUGAGGAUCACCCAUGUAACAAAGACGGCCUCAUGU [Sesor Array 19 - Jieux - Sensor v3, turn-off variant 2] (puzzle: Sensor v3, turn-off variant 2) | 11.7 |  |  | apparent KD of MS2 coat protein [2]: 166 nM; apparent KD of MS2 coat protein [3]: 112 nM
AGAAAACAUGAGGAUCACCCAUGUGAGGAUAUCGCGCUUAACAGGGUCACAGUGGUGUCGAGAAGGUGCCUGGG [Eternabot (L1) Solution 55] (Eterna round: R97, puzzle: Exclusion 1) |  | 144 | 66.3 | 
GCAAAAUAUCAGGAUAUGACUUUUUGCGUUAAGUCAGAAGGGAUAACAUGAGGAUCACCCAUGUGAUAUAGUGU [JR_Ex6_Sub031] (Eterna round: R97, puzzle: Exclusion 6) |  | 261 | 177 | 
UAUAGGCUAGGAUAUACAACACUUGGUUCGAAUGUUUGGAGACAUGAGGAUCACCCAUGUAGAAGGAGCAUUUC [Leleis] (Eterna round: R96, puzzle: Exclusion 2) |  | 264 | 66.5 | apparent KD of MS2 coat protein [4]: 54 nM
GACUAGGGAGGAUAUAUUUGCAGUGUACCUCGGGUGAUCGCACUUGAGGAUCACCCAAGUAGAAGGCUCGAGGG [EX2 #26] (Eterna round: R97, puzzle: Exclusion 2) |  | 41.9 | 46.5 | 
AUCCUACAUGAGGAUCACCCAUGUCAGGAUAUCCAAGAAAUGUGGCCUGAUUGGCCACGGAGAAGGGACGGGUG [jl-ex1-4.60 ViennaUCT mod] (Eterna round: R97, puzzle: Exclusion 1) |  | 47.2 | 45 | 
UUUUUAGAUGAAGGAUAUACUUAACAUGAGGAUCACCCAUGUGGUGUUGUGAGUGAGUGAGUUUAGUAGAAGGUCAAUUAUUUU [JMF's solution 21] (Eterna round: R96, puzzle: Exclusion NG 2) |  | 187 | 260 | apparent KD of MS2 coat protein [4]: 151 nM
AAAACAGUGUAGGAUAUGGCUGGGCUGAAAAUGCUAGAAGGACACACAUGAGGAUCACCCAUGUGACUUCGUGC [Atri] (puzzle: Exclusion 6) | 12.5 |  |  | 
GCUGGACAAGGAUAUAUAUGACGUGCUUCGGCACGAAGGUCACAUGAGGAUCACCCAUGUAGAAGGUGUCCAGC [E2/9-C2] (Eterna round: R97, puzzle: Exclusion 2) |  | 342 | 49.7 | 
UUUUUGUCAGGAUAUGAUUAGAUCUACUUCGGUAGAUCUAAUCAGAAGGGACAUGAGGAUCACCCAUGUAGUUU [Ex4 - 3 - 12] (puzzle: Exclusion 4) | 35.2 |  |  | 
GUGUACGGAGGAUAUAUAUGGGCAGGCUGACCUGCAGCUUCACAUGAGGAUCACCCAUGUAGAAGGCUGUGCAC [JL-ex2-2.07 Brourd mod] (puzzle: Exclusion 2) | 27.1 |  |  | 
UAAUGUAUAUAGGAUAUCUAGCUGGUAACAGCUAGAGAAGGAUGUACAUGAGGAUCACCCAUGUAAAUCAGUGA [Ex6/14-B2] (Eterna round: R97, puzzle: Exclusion 6) |  | 186 | 41.6 | 
ACGUAUAGAGGAUAUAGUGAAUAUUACAUGAGGAUCACCCAUGUUCUUCAAAGUAUAUUUCUAGAAGGCUAAUGAA [EX-5 Malc#10] (puzzle: Exclusion 5) | 35.5 |  |  | 
ACUUACUGAGGAUAUACAUAGAUUUACAUGAGGAUCACCCAUGUUCCUCUUUGUAUAAAUGUAGAAGGCAGAAGAA [Mat - Exclusion 5 - JL Mod - D58] (Eterna round: R97, puzzle: Exclusion 5) |  | 177 | 93.6 | 

Sequence | apparent KD of MS2 coat protein [1] [nM] | apparent KD of MS2 coat protein (input ligand: FMN 200 uM) [nM] | apparent KD of MS2 coat protein (input ligand: none) [nM] | further results
UAUUGCUGAGGAUAUAUAUAGAGCAUUUUCCUCGUGACAGAACAUGAGGAUCACCCAUGUAGAAGGCAGAAGUG [Eternabot (L2) Solution 87] (Eterna round: R97, puzzle: Exclusion 2) |  | 263 | 192 | 
UACUGGACAGGAUAUGUUCUUGAGCACUUGAGGAUCACCCAAGUCAUCAAGAACUCAGGCACAGAAGGGUUUAUGC [salish99_ex5_r4_007] (Eterna round: R97, puzzle: Exclusion 5) |  | 19.1 | 14 | 
GUUCCGCGAGGAUAUACAGACGGGUCCAAAACGUGUCUCGGACUUGAGGAUCACCCAAGUAGAAGGCGUUUCAG [salish99_ex2_r4_622] (Eterna round: R97, puzzle: Exclusion 2) |  | 20.4 | 22.1 | 
UCGUGGUAAAUCAGGUGAUGUCUGAUAGGAUGGACUUUGACAUGAGGAUCACCCAUGUUGCUUUUUGCCCGUCUUAA [JR_SV3TOV2_Sub044] (puzzle: Sensor v3, turn-off variant 2) | 27.3 |  |  | apparent KD of MS2 coat protein [2]: 16.1 nM; apparent KD of MS2 coat protein [3]: 15.2 nM
UUAAUUAAUAAUUAAGAUCAUUACAUGAGGAUCACCCAUGUCGAGGAUAUCAGCUCGUGUAGAGCUGAGAAGGCGACAAAUUAU [ExNG3/13-B3] (Eterna round: R96, puzzle: Exclusion NG 3) |  | 586 | 633 | apparent KD of MS2 coat protein [4]: 268 nM
GGUUCGAGUGUGAGGAUAUGCUGGUCCUUGGAUCAGCAGAAGGCACAUGAGGAUCACCCAUGUGGUAACGGACC [Mat - Exclusion 4 - Eli Mod - D35] (Eterna round: R97, puzzle: Brourd's mod of Exclusion 4) |  | 263 | 331 | 
CUUUUGUGAGGAUAUCAGUAGUAAAUAAAUAAAAUUACUACUGAGAAGGCACAUGAGGAUCACCCAUGUUCCUU [salish99_ex3_r3_089] (puzzle: Exclusion 4) | 15.3 |  |  | 
UUUUUAGUGCUUUUUAAGUACAUGAGGAUCACCCAUGUACUUGUCUGGUGGUCCGGACAAGCUUUUUGCUCGUCUAC [Sensor v3 - turn-off variant 1 - 2] (puzzle: Sensor v3, turn-off variant 1) | 30.5 |  |  | apparent KD of MS2 coat protein [2]: 49.5 nM; apparent KD of MS2 coat protein [3]: 54.3 nM
UAUCGGCGGACCGAGGCUUUUUGCUCGUCUUAUGCUACAACAUGAGGAUCACCCAUGUGGUGGUGGUCCGUUGUAGU [JL ViennaUCT Bitein mod 9] (puzzle: Sensor v3, turn-off variant 2) | 13.5 |  |  | apparent KD of MS2 coat protein [2]: 19.7 nM; apparent KD of MS2 coat protein [3]: 31.8 nM
CCAAGCUUCUUCAUUAUCCACAUGAGGAUCACCCAUGUCUUGGCAAUUAUGACCUGCCCGUCAGGAGCUCGUCUUAU [Sensor-V1 #38] (Eterna round: R97, puzzle: Sensor, turn-off variant 1) |  | 806 | 951 | 
GAUCAACAUGAGGAUCACCCAUGUGAGGAUAUGAUACUAUGUACUUCGGUACAUAGUAUCAGAAGGCAUGUAAA [Ex1-3: 78] (puzzle: Exclusion 1) | 54.5 |  |  | 
GCGCCAUCGUGAGAUGGCGUAAUUACAUGAGGAUCACCCAUGUAGGAUAUCGAUUGCUUUGCAGUCGAGAAGGACAUGAUAAUU [JL ENG3 3.80] (Eterna round: R96, puzzle: Exclusion NG 3) |  | 104 | 33.7 | apparent KD of MS2 coat protein [4]: 25 nM
GUUAUGUAAGGAUAUAUGAGUCACGGUGAUACACCGUGAAGAUAGAAGGUACAUGAGGAUCACCCAUGUAAGGC [Mod of Anonveat 10 - Jieux - Exclusion 4] (Eterna round: R97, puzzle: Exclusion 4) |  | 32.2 | 25.4 | 
GGAUAUAACGUAGGAUAUCUGAGAAAUAGAUGAAGAGAAGGACGACAUGAGGAUCACCCAUGUGAUCUAUCAAUAUUAUACAUG [Prohibition 100 - Jieux - Exclusion NG 1] (Eterna round: R96, puzzle: Exclusion NG 1) |  |  |  | apparent KD of MS2 coat protein [4]: 332 nM
AGCUAGUGCCGAGGAUAUGAUACAUGAGGAUCACCCAUGUGUAGGGUGUAUAUAUAUCAAUAAUAUUAGAAGGCGGCGUUGGCA [JL ENG2 1.47] (Eterna round: R96, puzzle: Exclusion NG 2) |  | 785 | 1480 | apparent KD of MS2 coat protein [4]: 480 nM
GUCAUCGCAGGAUAUUAGAGUUUUUACAUGAGGAUCACCCAUGUUAAUUGGGUUAAUGUCUAAGAAGGGCGAUGAA [JR_EX5_Sub013] (Eterna round: R97, puzzle: Exclusion 5) |  | 126 | 67.4 | 
GUAGAGACAGGAUAUACAUGAGGAUCACCCAUGUAAGGAGGAAGAGAGAGGAGAAGGAGUAGAAGGGUCAGAGG [JR_Exclu3_Sub029] (puzzle: Exclusion 3) | 35.3 |  |  | apparent KD of MS2 coat protein [2]: 29.2 nM; apparent KD of MS2 coat protein [3]: 35.2 nM
